Measurements reported in patent US20200048372A1 (UCB, published 2020).

Columns and labels:
mouse serum albumin = target: T1, mouse serum albumin (mouse, UniProt P07724 25-608); experiment: SPR (Biacore), purified construct captured, MSA injected
T1 construct: also called MSA; MurineSA

human serum albumin [1] = target: T2, human serum albumin (human, UniProt P02768 25-609); experiment: SPR (Biacore), purified construct captured, HSA injected
T2 construct: also called HSA; HumanSA

human serum albumin [2] = target: T2, human serum albumin; experiment: SPR (Biacore)

B1: FabB-didAb, -dAbL1 (CK-G4Sx2) & dAbH1 (CH1-G4Sx2) (bispecific antibody)
heavy: ASTKGPSVFPLAPSSKSTSGGTAALGCLVKDYFPEPVTVSWNSGALTSGVHTFPAVLQSSGLYSLSSVVTVPSSSLGTQTYICNVNHKPSNTKVDKKVEPKSCGGGGSGGGGSEVQLLESGGGLVQPGGSLRLSCAVSGIDLSNYAINWVRQAPGKGLEWIGIIWASGTTFYATWAKGRFTISRDSTTVYLQMNSLRAEDTAVYYCARTVPGYSTAPYFDLWGQGTLVTVSS
light: RTVAAPSVFIFPPSDEQLKSGTASVVCLLNNFYPREAKVQWKVDNALQSGNSQESVTEQDSKDSTYSLSSTLTLSKADYEKHKVYACEVTHQGLSSPVTKSFNRGECGGGGSGGGGSDIVMTQSPSSVSASVGDRVTITCQSSPSVWSNFLSWYQQKPGKAPKLLIYEASKLTSGVPSRFKGSGSGTDFTLTISSLQPEDFATYYCGGGYSSISDTTFGGGTKVEIK
notes: also called FabB-645Fv (G4Sx2); FabB-645Fv (2xG4S)
Mouse serum albumin
  koff: 0.000182 s⁻¹
Human serum albumin [1]
  koff: 0.000206 s⁻¹

B2: FabB-645dsFv (S3xG4S) with Fv heavy mutation T100aA (bispecific antibody, part only; not given: anti-OX40 Fab and linkers, V domains shown, not shown: another chain or arm of the molecule; large carriers; small tags and cut ends)
VH: EVQLLESGGGLVQPGGSLRLSCAVSGIDLSNYAINWVRQAPGKCLEWIGIIWASGTTFYATWAKGRFTISRDSTTVYLQMNSLRAEDTAVYYCARTVPGYSAAPYFDLWGQGTLVTVSS
VL: DIVMTQSPSSVSASVGDRVTITCQSSPSVWSNFLSWYQQKPGKAPKLLIYEASKLTSGVPSRFKGSGSGTDFTLTISSLQPEDFATYYCGGGYSSISDTTFGCGTKVEIK
modifications: Interchain disulfide between VH Cys44 and VL Cys100 (Kabat) of the dsFv
Human serum albumin [2]
  Kd: 51.6 nM
  koff: 0.0186 s⁻¹
  kon: 360000 M⁻¹ s⁻¹
